Values belong to the molecule of their own block, whether it stands above or below them.
Tests used:
[1] = target: H2AK119Ub nucleosome (non-hydrolyzable, 187 bp Widom 601 DNA) (Xenopus | not stated) (UniProt P0CG48)
[2] = target: T1, BAP1 (full-length human BAP1, residues 1-729) (human, UniProt Q92560 1-729); assay: cryo-EM structure
T1 sequence: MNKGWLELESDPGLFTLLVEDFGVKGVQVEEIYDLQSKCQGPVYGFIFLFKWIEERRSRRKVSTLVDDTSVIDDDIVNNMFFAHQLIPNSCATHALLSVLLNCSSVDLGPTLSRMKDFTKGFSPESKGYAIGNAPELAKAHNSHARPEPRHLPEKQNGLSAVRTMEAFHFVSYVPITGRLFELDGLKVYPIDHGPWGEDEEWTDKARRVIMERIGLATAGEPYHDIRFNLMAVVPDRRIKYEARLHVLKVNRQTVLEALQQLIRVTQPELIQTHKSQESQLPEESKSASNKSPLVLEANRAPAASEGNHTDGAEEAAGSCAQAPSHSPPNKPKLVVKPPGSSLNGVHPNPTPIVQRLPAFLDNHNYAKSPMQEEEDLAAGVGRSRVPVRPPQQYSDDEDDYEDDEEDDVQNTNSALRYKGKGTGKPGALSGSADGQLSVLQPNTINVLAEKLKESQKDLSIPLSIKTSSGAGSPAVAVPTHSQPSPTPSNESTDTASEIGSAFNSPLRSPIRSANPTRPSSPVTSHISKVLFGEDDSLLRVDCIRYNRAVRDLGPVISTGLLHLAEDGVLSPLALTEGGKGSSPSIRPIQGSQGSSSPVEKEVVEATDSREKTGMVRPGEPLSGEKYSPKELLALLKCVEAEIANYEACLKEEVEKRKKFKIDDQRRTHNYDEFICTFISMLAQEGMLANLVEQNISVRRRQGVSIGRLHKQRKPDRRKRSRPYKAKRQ

Sequence of H2AK119Ub nucleosome (non-hydrolyzable, 187 bp Widom 601 DNA) (Xenopus | not stated) (P0CG48 whole entry, looked up, the tested form may be a part): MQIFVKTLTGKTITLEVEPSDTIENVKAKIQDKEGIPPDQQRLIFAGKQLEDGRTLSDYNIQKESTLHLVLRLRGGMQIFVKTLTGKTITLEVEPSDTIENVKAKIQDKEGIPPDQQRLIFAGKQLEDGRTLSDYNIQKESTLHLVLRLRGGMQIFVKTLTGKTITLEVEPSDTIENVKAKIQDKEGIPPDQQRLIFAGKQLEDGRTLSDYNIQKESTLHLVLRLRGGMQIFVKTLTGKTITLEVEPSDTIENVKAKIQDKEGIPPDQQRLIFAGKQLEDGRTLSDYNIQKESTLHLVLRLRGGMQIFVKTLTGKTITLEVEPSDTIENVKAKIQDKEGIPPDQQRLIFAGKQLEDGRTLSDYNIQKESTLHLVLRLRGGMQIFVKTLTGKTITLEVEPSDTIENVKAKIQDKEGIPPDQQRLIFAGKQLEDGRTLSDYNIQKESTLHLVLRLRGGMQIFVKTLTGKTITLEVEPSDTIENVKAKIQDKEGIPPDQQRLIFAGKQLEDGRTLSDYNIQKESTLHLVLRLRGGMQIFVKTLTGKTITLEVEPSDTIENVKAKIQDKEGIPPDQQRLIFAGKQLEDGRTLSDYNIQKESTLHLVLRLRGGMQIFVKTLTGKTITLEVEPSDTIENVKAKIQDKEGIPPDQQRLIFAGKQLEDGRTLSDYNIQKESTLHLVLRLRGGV

kcat (turnover number) of deubiquitination of the H2AK119ub1 designer nucleosome [1]: 0.015 s⁻¹
Molecule: BAP1 R56A/R57A/R59A/R60A in complex with wild-type ASXL1 DEUBAD (from UniProt Q92560;Q8IXJ9)

binding result [2]: binds
B1: ASXL1 DEUBAD domain (residues 237-390) (domain or fragment)
chain: PATGQMKRNRGEEIDFETPGSILVNTNLRALINSRTFHALPSHFQQQLLFLLPEVDRQVGTDGLLRLSSSALNNEFFTHAAQSWRERLADGEFTHEMQVRIRQEMEKEKKVEQWKEKFFEDYYGQKLGLTKEESLQQNVGQEEAEIKSGLCVPG
